The text below walks through data of PMC3835729.

This data set deals with Nc1ncnc2c1ncn2[C@@H]1O[C@H](COP(=O)(O)NCCc2c[nH]c3ccccc23)[C@@H](O)[C@H]1O. In words: purified protein. Particulars: 20 mM HEPES, 1 mM MgCl2, pH 7.2, 25 °C.

As for “human histidine triad nucleotide binding protein 1 (hHint1) (Homo sapiens)”, the Km was found to be 0.13 ± 0.02 µM, the kcat worked out at 2.1 ± 0.1 s⁻¹ and the kcat/Km was 1.5e+07 ± 3e+06 M⁻¹ s⁻¹.
As for “human histidine triad nucleotide binding protein 1 (hHint1) (Homo sapiens; H51A)”, the Km was 1.8 ± 0.2 µM, the kcat was found to be 0.53 ± 0.02 s⁻¹ and the kcat/Km is 300000 ± 40000 M⁻¹ s⁻¹.
On to “human histidine triad nucleotide binding protein 1 (hHint1) (Homo sapiens; H114A)”, for which the Km amounted to 0.27 ± 0.05 µM.
